Assay [1] addresses T1, human LIF protein (human, UniProt P15018 23-202).
T1 construct: Bought recombinant protein (Sino Biological / Yiqiao Shenzhou 14890-HNAH) in most assays; also called recombinant human LIF protein; rhLIF
Put plainly: KinExA 4000, solution equilibrium. Here is the method: The affinity of the purified monoclonal antibodies to the recombinant human LIF protein was determined by KinExA 4000. 200 mg PMMA hard beads were added with 30 μg of the 38E10E1C11 antibody and additional adding coating solution to 1 mL. The buffer composition is 1 xPBS, pH 7.4, 0.02% NaN3. And make sure that the beads were completely suspended in the solution, and rotated for 2 h at room temperature. The beads were naturally settled or quickly centrifuged at low speed. The supernatant was removed and the beads were blocked with PBS containing 1% BSA. 15 mL of 300 pM antigen solution and 15 mL of 240 pM Ab2 (38E10E1C11) solution were prepared. 0.6 mL of 300 pM antigen and 0.6 mL of 240 pM antibody Ab2 (38E10E1C11) were put into different sample tubes separately. The samples in the two tubes were well mixed and put together into one tube, the concentration of the antigen was 150 pM and the concentration of antibody Ab2 (38E10E1C11) was 120 pM at this time, and the solution was placed in the corresponding position in the tube holder. […] Each group was added with 1 μg/L1 Streptavidin Protein, DyLight 650 Solution, and was detected on machine set to incubate for 24 hours. In the KinExatm Pro software, the equilibrium dissociation constant (Kd) for n-curve analysis was calculated by the unknown ligand model, and the results are shown in FIG. 4.
On the technique in general: In KinExA the mixture passes briefly over coated beads that capture the unbound partner.

Assay [2] addresses T1, human LIF protein. Put plainly: ELISA, human LIF coated at 1 µg/mL, A450. On the procedure: The recombinant human LIF protein was diluted to 1 μg/mL, was coated on the enzyme label plate, 100 μL of the protein was added into every well, and incubated overnight in 4° C. The enzyme label plates were taken out next day, and the liquid was discarded, and were washed with PBST three times and blocked with 2% BSA in PBS for 1 h at room temperature, then washed with PBST three times, and added anti-human LIF antibodies 38E10E1C11, 5D8 and P36-033 at different concentrations and incubated for 1 h at room temperature. The liquid was discarded, and the plates were washed with PBST four times. The plates were added with HRP-labeled goat anti-mouse Fab antibody or goat anti-human FC antibody and incubated for 1 h at room temperature. Then the liquid was discarded, and the plates were washed four times with PBST and incubated with TMB colored solution in 10 minutes at room temperature. Stop color development by adding 2 mol/L H₂SO₄, and the absorption value at 450 nm is quantitated using an automated plate photometer, and the results were shown in FIG. 1.

The target in assay [3] is T1, human LIF protein. Put plainly: competition ELISA: human LIF coated at 1 µg/mL, GP130-Fc 20 µg/mL added together with the antibody, A450. Here is the method: The recombinant human LIF protein was coated on the enzyme label plates at a concentration of 1 μg/mL, GP130 protein (expressed fusedly with human FC) at a concentration of 20 μg/mL was added (50 μL/well), and the anti-human LIF antibodies P36-033 and 38E10E1C11 at different concentrations simultaneously were added separately (50 μL/well), and incubated for 2 h at room temperature. At the same time, the control wells added with antibodies and without GP130 protein were set. Incubated for 2 h at room temperature. After washed four times with PBST, incubated with HRP-labeled goat anti-mouse FC secondary antibody for 1 h at room temperature. Then the plates were washed four times with PBST and added with TMB coloured solution in for 10 minutes. The absorption value at 450 nm is quantitated using an enzyme-labelling measuring instrument, and the data was analyzed and plotted using Origin pro 9 software.
On the technique in general: An ELISA detects its analyte on a solid surface through an enzyme-linked reagent.

In another assay the target is human IL-6 (human, UniProt P05231 30-212, limits assumed). Put plainly: ELISA, human IL-6 coated at 1 µg/mL, HRP goat anti-mouse Fab, A450. On the procedure:
After washed four times with PBST, HRP-labeled goat anti-mouse Fab secondary antibodies were added and incubated at room temperature for 1 h. After washed four times with PBST, TMB colored solution was added and color developing for 10 min at room temperature. The absorption value at 450 nm was read by the enzyme maker. The data were analyzed and plotted using Origin pro 9 software.

The target in assay [4] is T1, human LIF protein. The assay can be described thus: competition ELISA, LIF coated, competitor LIFR-Fc 0.6125 ug/mL detected with anti-human Fc.

T1 sequence (P15018 23-202 limits assumed): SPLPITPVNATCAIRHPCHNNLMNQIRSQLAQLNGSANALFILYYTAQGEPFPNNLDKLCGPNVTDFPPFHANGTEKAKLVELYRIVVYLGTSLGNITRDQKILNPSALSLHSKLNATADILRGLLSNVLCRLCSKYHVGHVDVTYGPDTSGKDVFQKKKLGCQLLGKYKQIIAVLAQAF
Sequence of human IL-6 (P05231 30-212 limits assumed): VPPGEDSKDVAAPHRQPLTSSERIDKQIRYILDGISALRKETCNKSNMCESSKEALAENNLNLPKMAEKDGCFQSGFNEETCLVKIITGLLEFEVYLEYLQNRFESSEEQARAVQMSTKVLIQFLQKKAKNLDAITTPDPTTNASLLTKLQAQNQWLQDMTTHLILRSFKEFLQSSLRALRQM

B1: 38E10E1C11 antibody (antibody, mouse IgG1, kappa)
heavy: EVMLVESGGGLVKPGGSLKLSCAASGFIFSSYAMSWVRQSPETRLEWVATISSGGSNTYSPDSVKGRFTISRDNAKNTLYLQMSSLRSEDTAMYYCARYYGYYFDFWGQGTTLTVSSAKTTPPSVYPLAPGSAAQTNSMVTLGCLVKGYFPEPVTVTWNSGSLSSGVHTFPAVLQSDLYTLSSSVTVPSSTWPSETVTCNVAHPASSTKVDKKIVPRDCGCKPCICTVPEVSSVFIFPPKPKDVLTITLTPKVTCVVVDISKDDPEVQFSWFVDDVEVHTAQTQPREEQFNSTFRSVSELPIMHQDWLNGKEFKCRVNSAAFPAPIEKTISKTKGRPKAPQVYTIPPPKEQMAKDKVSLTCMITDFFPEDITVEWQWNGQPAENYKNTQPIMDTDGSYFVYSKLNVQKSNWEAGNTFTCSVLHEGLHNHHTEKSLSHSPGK
light: DIHMTQSPASLSASVGETVTITCRASENIYSYLAWYQQKQGKSPQLLVYNAKTLAEGVPSRFSGSGSGTQFSLKINSLQPEDFGSYYCQHHYVTPLTFGAGTKLELKRADAAPTVSIFPPSSEQLTSGGASVVCFLNNFYPKDINVKWKIDGSERQNGVLNSWTDQDSKDSTYSMSSTLTLTKDEYERHNSYTCEATHKTSTSPIVKSFNRNEC
notes: Mouse IgG1, kappa light chain; also called 38E10E1C11 mAb; mAb38E10E1C11
As usually defined, the Kd is a measure of binding affinity in units of concentration. A low value points to tighter binding. For orientation: EC50 (read off the curve) means the concentration giving half of the maximal effect. Low readings indicate a more potent agent, high ones a less potent agent. Broadly, the IC50 is the concentration that gives 50% inhibition. Consider B1, for which binding in the assay with human LIF protein [1] was put at a Kd of 4.52 pM. Further, the “EC50 (read off the curve)” value with human LIF protein [2] is roughly 0.05 µg/mL. Further, the “IC50 (read off the curve)” value with human LIF protein [3] was roughly 0.6 µg/mL. Further, in the assay with human IL-6, the binding result is reported as “no binding (tested: 25 ug/ml)”. Further, the IC50 in the assay with human LIF protein [4] worked out at 0.074 µg/mL.

These data come from US20210403582A1 (JACOBIO PHARMACEUTICALS, published 2021).
